# Paper PMC9045250
# B1: monoclonal antibody 13G11 against CD2V (antibody, V domains shown)
# VH: MIMVQSQESGPDLVKPSQSLSLTCTVTGYSITSGYSWHWIRQFPGNKLEWMGYIHYSGVTNYNPSLKSRISITRDTSKNQFFLQLNSVTTEDTATYYCARAPLYYGNYVWFSYWGQGTTVTVSSK
# VL: MTCDIELTQSPASLSASVGETVTITCRASGNIHNYLAWYQQKQGKSPQLLVYNAKTLADGVPSRFSGSGSGSQYSLKINSLQPEDFGSYYCQHFWSTPWTFGGGTKLENQTDK
# B2: monoclonal antibody 18A3 against CD2V (antibody, V domains shown)
# VH: MVKPGASVKISCKASGYSFTSYYIHWVKQRPGQGLEWIGWIFPGSGNTKYNEKFKGKATLTADTSSSTAYMQLSSLTSEDSAVYFCAQTGRVFAYWGQGTTVTVSSK
# VL: MTQSPSSLSASLGERVSLTCRASQEISGYLSWLQQKPDGTIKRLIYAASTLDSGVPKRFSGSRSGSDYSLTISSLESEDFADYYCLQYASYPWTFGGGTKLESNGE
# Target: no. 14 short peptide of the CD2V extracellular region (147-161) (African swine fever virus (China/2018/AnhuiXCGQ))
# Assay: ELISA
# Conditions: remark: other sources report otherwise
binder,measurement,value
B1,OD450,> 1 OD450
B2,OD450,> 1 OD450
